From patent US8623366B2, “Methods for treating visceral pain by administering antagonist antibodies directed against calcitonin gene-related peptide” (Labrys Biologics, Inc., priority 2009, dated 2014)
Read-outs that look alike come from different tables or passages of the source. Blank lines part the entries; values can stand above or below the molecule they belong to.

Tests used:
[1] = tested on: visceral hypersensitivity (VH); details: systemically injected; Delafoy 2006, Plourde 1997, Julia and Bueno 1997; cited from earlier work
TNBS treated rats = experiment: Rat TNBS colitis visceral pain model, balloon distension of the colon; type: in vivo; details: intravenous, FIG. 1A and 1B
Protocol: Colorectal distension after TNBS-induced colitis in rats is an animal model that has been used by many researchers to explore the mechanisms of visceral hypersensitivity (Gay et al, 2006, Delafoy et al, 2006, Adam et al., 2006). In this Example, the rat TNBS colitis model was used to test the effect of a function-blocking antibody for CGRP. In the model, as in the human IBS studies, the visceral pain threshold is measured by response to balloon distension of the colon.
After overnight fasting, rats were anesthetized with ketamine (80 mg/ml)/xylazine (12 mg/ml) at a dosage of 1 ml/kg. An abdominal laparotomy was performed and a TNBS solution (50 mg at 1.5 ml/kg in 30% ethanol, “TNBS treatment group”) or 30% ethanol solution (“sham group”) was injected into the proximal colon 1 cm distal from ceacum. The sham group was used as a non-colitis control. […]
The seventh day following surgery, after a second overnight fast, TNBS treated rats sustaining a weight loss of no greater than 11% were tested for visceral pain threshold with balloon distension. […] Balloon distension was halted at the threshold pressure required to elicit a stereotypical rodent visceral pain posture known as the alpha position (repeated waves of contraction of oblique musculature with inward turning of the hindpaw) and this was recorded as the visceral pain threshold.

[2] = cited from earlier work
[3] = biological target: T1, human α-CGRP binding to the CGRP1-receptor (Homo sapiens, UniProt P06881); experiment: Binding assay: blocking 125I-human α-CGRP from binding to CGRP1-receptor on SK-N-MC cell membranes; details: IC50 higher than Biacore KD at equivalent temperature
T1 construct: host or cells: receptor: endogenous, membranes of SK-N-MC cells
T1 sequence (P06881 83-119 limits assumed): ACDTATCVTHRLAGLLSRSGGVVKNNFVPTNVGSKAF
Protocol: A binding assay was performed to measure the IC50 of anti-CGRP G1 antibody in blocking human α-CGRP from binding to the CGRP1-receptor. […] Incubation was terminated by filtration through a glass microfiber filter (GF/B, 1 μm) which had been blocked with 0.5% polyethylenimine. The protein-bound radioactivity was determined in a gamma counter.

rat β-CGRP = biological target: T2, rat β-CGRP (Rattus norvegicus, UniProt P10093, R105S); experiment: Biacore interaction analysis of Fab fragments, N-biotin β-rat CGRP on chip; type: binding
T2 sequence (P10093 89-125 R105S limits assumed): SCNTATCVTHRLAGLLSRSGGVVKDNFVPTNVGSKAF
Protocol: (§1) Interaction analysis was conducted at 25° C. and at 37° C. on a Biacore 3000™ system equipped with streptavidin-coated (SA) sensor chips (Biacore AB, Uppsala, Sweden) using standard Biacore running buffers (HBS-P or HBS-EP). N-LC-biotinylated human and rat α- and β-CGRPs were captured on individual flow cells at low levels (typically 100 response units) to provide the reaction surfaces, while an unmodified flow cell served as a reference channel. Purified Fab fragments of antibodies G1 and G2 were generated. Typically, Fabs were prepared as a two-fold serial dilution using 0.5 μM as the top concentration and injected for 1-min at 100 μl/min allowing up to two hours for the dissociation time. Surfaces were regenerated with a mixture of 50% v/v ethanol+25 mM NaOH for G1 Fab and 2:1 v/v Pierce Gentle Elution Buffer/4M NaCl for G2 Fab. […] The binding responses were double-referenced and fit globally to a simple model using BiaEvaluation v. 4.0 software. Affinities were deduced from the quotient of the kinetic rate constants (KD=koff/kon).
(§2) As such, the offrate (koff) cannot be measured accurately unless the dissociation phase is monitored for a very long time. As a general rule-of-thumb, the binding response decays at least 5% over the allowed dissociation time for the report of an accurate offrate. However, monitoring long dissociation times on the Biacore is hindered by baseline drift, which is particularly challenging when working at the low surface capacities required for kinetic analyses. In this study, the dissociation phase was followed for two hours over the α-CGRPs but only 20 mins over the β-CGRPs. As a result, the offrates for β-CGRPs cannot be resolved as accurately as those for α-CGRPs.
The results for antibody G2 are expressed in Table 2.

human β-CGRP = biological target: T3, human β-CGRP (Homo sapiens, UniProt P10092); experiment: Biacore interaction analysis of Fab fragments, N-biotin β-human/cyno CGRP on chip; type: binding
T3 construct: and
T3 sequence (P10092 82-118 limits assumed): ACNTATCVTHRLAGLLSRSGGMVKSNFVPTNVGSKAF
Protocol: as §1, §2

rat α-CGRP = biological target: T4, rat α-CGRP (Rattus norvegicus, UniProt P01256); experiment: Biacore interaction analysis of Fab fragments, N-biotin α-rat CGRP on chip; type: binding
T4 sequence (P01256 83-119 limits assumed): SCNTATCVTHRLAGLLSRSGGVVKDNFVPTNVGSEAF
Protocol: as §1, §2

α-rat CGRP = biological target: T5, α-rat CGRP (Rattus norvegicus, UniProt P01256); details: Table 6 reproduced from WO2007/054809; cited from earlier work
T5 sequence (P01256 83-119 limits assumed): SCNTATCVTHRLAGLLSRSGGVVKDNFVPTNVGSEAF

human α-CGRP [4] = biological target: T6, human α-CGRP (Homo sapiens, UniProt P06881); experiment: Biacore interaction analysis of Fab fragments, N-biotin α-human/cyno CGRP on chip; type: binding
T6 sequence (P06881 83-119 limits assumed): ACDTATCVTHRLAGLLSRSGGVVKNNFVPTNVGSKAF
Protocol: as §1, §2

human α-CGRP [5] = biological target: T6, human α-CGRP; details: Table 6 reproduced from WO2007/054809; cited from earlier work
[6] = β-rat CGRP, 37° C., Fab, 20 min dissociation
[7] = β-human/cyno CGRP, 37° C., 20 min dissociation

Molecule: CGRP 8-37: a CGRP receptor antagonist
reversing visceral hypersensitivity (VH) [1]: effective in reversing visceral hypersensitivity (VH)
effect on visceral pain threshold, 4901 compared with CGRP 8-37 (TNBS treated rats): comparable
half-life in-vivo [2]: very short half-life in-vivo

IC50 relative to KD observed by Biacore [3]: 23 fold
koff (rat β-CGRP; [6]): <7.85e-05 s⁻¹
kon (rat β-CGRP; [6]): 516000 M⁻¹ s⁻¹
koff (human β-CGRP; [7]): <6.98e-05 s⁻¹
kon (human β-CGRP; [7]): 451000 M⁻¹ s⁻¹
koff (rat α-CGRP; 25° C.): 6.18e-05 s⁻¹
kon (rat α-CGRP; 25° C.): 50800 M⁻¹ s⁻¹
koff (rat α-CGRP; 37° C.): 0.000399 s⁻¹
kon (rat α-CGRP; 37° C.): 155000 M⁻¹ s⁻¹
koff (human α-CGRP [4]; 25° C.): 7.8e-06 s⁻¹
kon (human α-CGRP [4]; 25° C.): 186000 M⁻¹ s⁻¹
koff (human α-CGRP [4]; 37° C.): 3.63e-05 s⁻¹
kon (human α-CGRP [4]; 37° C.): 587000 M⁻¹ s⁻¹
Molecule: G1: anti-CGRP antagonist antibody produced by expression vectors ATCC PTA-6867 and PTA-6866; VH SEQ ID NO: 1, VL SEQ ID NO: 2 [Clone G1]
α-rat koff (α-rat CGRP): 0.000399 s⁻¹
α-human koff (human α-CGRP [5]): 3.63e-05 s⁻¹

Kd (human β-CGRP; β-human CGRP, 25° C.): 20 nM
koff (human β-CGRP; β-human CGRP, 25° C.): 0.00162 s⁻¹
kon (human β-CGRP; β-human CGRP, 25° C.): 81400 M⁻¹ s⁻¹
koff (rat α-CGRP; 25° C.): 0.000214 s⁻¹
kon (rat α-CGRP; 25° C.): 231000 M⁻¹ s⁻¹
koff (rat α-CGRP; 37° C.): 0.0017 s⁻¹
kon (rat α-CGRP; 37° C.): 500000 M⁻¹ s⁻¹
Kd (human α-CGRP [4]; 25° C.): 19 nM
koff (human α-CGRP [4]; 25° C.): 0.00115 s⁻¹
kon (human α-CGRP [4]; 25° C.): 60300 M⁻¹ s⁻¹
koff (human α-CGRP [4]; 37° C.): 0.0039 s⁻¹
kon (human α-CGRP [4]; 37° C.): 93000 M⁻¹ s⁻¹
B1: G2: anti-rat CGRP mouse monoclonal antibody as described in Wong H C et al. Hybridoma 12:93-106, 1993; VH SEQ ID NO: 19, VL SEQ ID NO: 20 (antibody, V domains shown)
VH: EVQLQQSGPELVKPGASVKMSCKASGYTFTSSVMHWVKQKPGQGLEWIGYINPYNDGTKYNEKFKGKATLTSDKSSSTAYMELSSLTSEDSAVYYCAKGGNDGYWGQGTTLTVSS
VL: EIVLTQSPTTMAASPGEKITITCSASSSISSIYLHWYQQKPGFSPKVLIYRASNLASGVPARFSGSGSGTSYSLTIGTMEAEDVATYYCQQGSTIPFTFGSGTKLEIK
modifications: Synthetic polypeptide, Antibody G2 heavy chain variable region; Synthetic polypeptide, Antibody G2 light chain variable region
binding characteristics to β-rat CGRP (rat β-CGRP; reverse orientation assay format (data not shown)): comparable binding characteristics to α- and β-human CGRPs

B2: M26: G1 variant: L1 R28N; H2 A57G; HC-FW3 L99T A100V (antibody, chains of the INN, looked up, variant L:R28N H:A57G H:L99T H:A100V, V domains shown)
VH: EVQLVESGGGLVQPGGSLRLSCAASGFTFSNYWISWVRQAPGKGLEWVAEIRSESDGSATHYAEAVKGRFTISRDNAKNSLYLQMNSLRAEDTAVYYCTVYFDYGLAIQNYWGQGTLVTVSS
VL: EIVLTQSPATLSLSPGERATLSCKASKNVTTYVSWYQQKPGQAPRLLIYGASNRYLGIPARFSGSGSGTDFTLTISSLEPEDFAVYYCSQSYNYPYTFGQGTKLEIK
Kd (α-rat CGRP): 51.3 nM
Kd (human α-CGRP [5]): 0.93 nM

B3: M31: G1 variant: L1 R28N T30G; H2 E54K A57G; HC-FW3 L99T A100V (antibody, chains of the INN, looked up, variant L:R28N L:T30G H:E54K H:A57G H:L99T H:A100V, V domains shown)
VH: EVQLVESGGGLVQPGGSLRLSCAASGFTFSNYWISWVRQAPGKGLEWVAEIRSKSDGSATHYAEAVKGRFTISRDNAKNSLYLQMNSLRAEDTAVYYCTVYFDYGLAIQNYWGQGTLVTVSS
VL: EIVLTQSPATLSLSPGERATLSCKASKNVGTYVSWYQQKPGQAPRLLIYGASNRYLGIPARFSGSGSGTDFTLTISSLEPEDFAVYYCSQSYNYPYTFGQGTKLEIK
Kd (α-rat CGRP): 201 nM
Kd (human α-CGRP [5]): 2.17 nM

B4: M28: G1 variant: L1 R28N T30D; H2 E54R A57N; HC-FW3 L99T A100V (antibody, chains of the INN, looked up, variant L:R28N L:T30D H:E54R H:A57N H:L99T H:A100V, V domains shown)
VH: EVQLVESGGGLVQPGGSLRLSCAASGFTFSNYWISWVRQAPGKGLEWVAEIRSRSDNSATHYAEAVKGRFTISRDNAKNSLYLQMNSLRAEDTAVYYCTVYFDYGLAIQNYWGQGTLVTVSS
VL: EIVLTQSPATLSLSPGERATLSCKASKNVDTYVSWYQQKPGQAPRLLIYGASNRYLGIPARFSGSGSGTDFTLTISSLEPEDFAVYYCSQSYNYPYTFGQGTKLEIK
Kd (α-rat CGRP): 69.4 nM
Kd (human α-CGRP [5]): 0.62 nM

B5: M37: G1 variant: L1 R28N T30S; H2 A57G; HC-FW3 L99T A100V (antibody, chains of the INN, looked up, variant L:R28N L:T30S H:A57G H:L99T H:A100V, V domains shown)
VH: EVQLVESGGGLVQPGGSLRLSCAASGFTFSNYWISWVRQAPGKGLEWVAEIRSESDGSATHYAEAVKGRFTISRDNAKNSLYLQMNSLRAEDTAVYYCTVYFDYGLAIQNYWGQGTLVTVSS
VL: EIVLTQSPATLSLSPGERATLSCKASKNVSTYVSWYQQKPGQAPRLLIYGASNRYLGIPARFSGSGSGTDFTLTISSLEPEDFAVYYCSQSYNYPYTFGQGTKLEIK
Kd (α-rat CGRP): 80.6 nM
Kd (human α-CGRP [5]): 1.41 nM

B6: M38: G1 variant: L1 R28N T30W; HC-FW3 L99T A100V (antibody, chains of the INN, looked up, variant L:R28N L:T30W H:L99T H:A100V, V domains shown)
VH: EVQLVESGGGLVQPGGSLRLSCAASGFTFSNYWISWVRQAPGKGLEWVAEIRSESDASATHYAEAVKGRFTISRDNAKNSLYLQMNSLRAEDTAVYYCTVYFDYGLAIQNYWGQGTLVTVSS
VL: EIVLTQSPATLSLSPGERATLSCKASKNVWTYVSWYQQKPGQAPRLLIYGASNRYLGIPARFSGSGSGTDFTLTISSLEPEDFAVYYCSQSYNYPYTFGQGTKLEIK
Kd (α-rat CGRP): 284 nM
Kd (human α-CGRP [5]): 1.36 nM

B7: M27: G1 variant: L1 R28N T30A; HC-FW3 L99T A100V (antibody, chains of the INN, looked up, variant L:R28N L:T30A H:L99T H:A100V, V domains shown)
VH: EVQLVESGGGLVQPGGSLRLSCAASGFTFSNYWISWVRQAPGKGLEWVAEIRSESDASATHYAEAVKGRFTISRDNAKNSLYLQMNSLRAEDTAVYYCTVYFDYGLAIQNYWGQGTLVTVSS
VL: EIVLTQSPATLSLSPGERATLSCKASKNVATYVSWYQQKPGQAPRLLIYGASNRYLGIPARFSGSGSGTDFTLTISSLEPEDFAVYYCSQSYNYPYTFGQGTKLEIK
Kd (α-rat CGRP): 189 nM
Kd (human α-CGRP [5]): 2.23 nM
